PMC6487263, “Kinetic and structural analysis of human ALDH9A1” (Bioscience Reports, 2019)

Biological target: the molecule itself
Assay: crystal structure; three crystal forms (P2(1)2(1)2, P2(1), C2) at 2.5, 2.9 and 2.3 Å; co-crystallised with 50 mM NAD+ with or without 10 mM TMABA, PEG 4000, 0.1 M sodium citrate pH 5.6; apoform seen; tetramer as dimer-of-dimers

B1: human ALDH9A1 (enzyme, UniProt P49189 1-494, looked up)
chain: MSTGTFVVSQPLNYRGGARVEPADASGTEKAFEPATGRVIATFTCSGEKEVNLAVQNAKAAFKIWSQKSGMERCRILLEAARIIREREDEIATMECINNGKSIFEARLDIDISWQCLEYYAGLAASMAGEHIQLPGGSFGYTRREPLGVCVGIGAWNYPFQIASWKSAPALACGNAMVFKPSPFTPVSALLLAEIYSEAGVPPGLFNVVQGGAATGQFLCQHPDVAKVSFTGSVPTGMKIMEMSAKGIKPVTLELGGKSPLIIFSDCDMNNAVKGALMANFLTQGQVCCNGTRVFVQKEILDKFTEEVVKQTQRIKIGDPLLEDTRMGPLINRPHLERVLGFVKVAKEQGAKVLCGGDIYVPEDPKLKDGYYMRPCVLTNCRDDMTCVKEEIFGPVMSILSFDTEAEVLERANDTTFGLAAGVFTRDIQRAHRVVAELQAGTCFINNYNVSPVELPFGGYKKSGFGRENGRVTIEYYSQLKTVCVEMGDVESAF
notes: Human ALDH9A1, a protein of 494 amino acids; the ORF was amplified with gene-specific primers and ligated into pCDFDuet (BamHI, XhoI); Monomer of 55.4 kDa including the His-tag; cloning into the BamHI site of pCDFDuet would place a His6 tag at the N-terminus (surmised); Residues 232-256 are disordered in the crystal structures; also called HsALDH9A1; TMABALDH; source: E. coli (T7 express; …)
- stoichiometry N: 4
